We go through 1 molecule from paper PMC4204924.

In this data set the target is thrombin (UniProt P00734;P00734 328-363;364-622). Nature of the data set: competition.

GGTTGGTGTGGTTGGTTT (structured_DNA) [thrombin aptamer (TA)]: the binding result was “binds”.
